This note sets out measurements from patent US20190233526A1.

The target in the assay is human C-C motif chemokine receptor 4 (CCR4) on tumor cell lines (human) (UniProt P51679). In words: cell-based or functional assay.
UniProt P51679, sequence (P51679 whole entry): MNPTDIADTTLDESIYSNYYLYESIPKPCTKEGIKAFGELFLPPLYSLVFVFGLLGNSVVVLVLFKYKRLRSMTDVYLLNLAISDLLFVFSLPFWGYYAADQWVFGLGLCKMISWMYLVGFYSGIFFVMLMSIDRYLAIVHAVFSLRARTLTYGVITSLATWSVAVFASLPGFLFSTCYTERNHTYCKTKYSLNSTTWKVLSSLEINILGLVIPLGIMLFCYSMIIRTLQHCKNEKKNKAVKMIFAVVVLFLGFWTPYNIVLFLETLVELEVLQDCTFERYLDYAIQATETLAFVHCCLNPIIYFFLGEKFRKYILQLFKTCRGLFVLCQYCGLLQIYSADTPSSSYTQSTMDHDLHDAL

Turning to “CCR4 CAR (chimeric antigen receptor with mAb2-3 scFv, CD8 hinge and transmembrane domain, 4-1BB signaling domain and CD3 zeta signaling domain), expressed on transduced human CD3+ T cells”, the GM-CSF fold-induction, CAR T cells co-cultured with irradiated ATL55T cells for 24 hours came to 5 fold; the IFN-gamma fold-induction, CAR T cells co-cultured with irradiated ATL55T cells for 24 hours came out at 2 fold; the IL-4 fold-induction, CAR T cells co-cultured with irradiated ATL55T cells for 24 hours was 9 fold; the IL-5 fold-induction, CAR T cells co-cultured with irradiated ATL55T cells for 24 hours was found to be 4 fold. Moreover, the IL-8 fold-induction, CAR T cells co-cultured with irradiated ATL55T cells for 24 hours worked out at 4 fold; the IL-13 fold-induction, CAR T cells co-cultured with irradiated ATL55T cells for 24 hours was determined as 3 fold; the MDC fold-induction, CAR T cells co-cultured with irradiated ATL55T cells for 24 hours amounted to 2 fold; the TNF-alpha fold-induction, CAR T cells co-cultured with irradiated ATL55T cells for 24 hours was found to be 8 fold. The substance also displayed a TNF-beta fold-induction, CAR T cells co-cultured with irradiated ATL55T cells for 24 hours of 5 fold; a [3H]thymidine incorporation of CAR T cells co-cultured with irradiated CCR4-bearing target cells greater than 3 fold; an increase of MIP-1α level on co-culture with target cells of 36%; an increase of MP-10 (so in the source) level on co-culture with target cells of 25%.
